Experimental data reported in patent US11485776B2, “Antibodies against infectious diseases” (priority 2015, dated 2022).
Entries after “also recorded” stand apart in the source; their conditions may differ.

Experiments:
CaENO1 [1] = molecular target: T1, CaENO1 (Candida albicans, UniProt P30575); assay type: binding, C. albicans; details: free form vs fixed form recombinant CaENO1
T1 construct: using full-length CaENO1 (1323 bp) as template; His (N); made in house; host or cells: E. coli BL21
Experimental: (A) Purified CaS1 scFv was used to recognize recombinant CaENO1 protein. The CaS1 scFv were used as primary antibody with series dilution. The goat anti-chicken light chain IgG was used as secondary antibody. The HRP conjugated donkey anti-goat IgG was used to decet. (B) OD value was calculated into percentage. […] The goat anti-chicken light chain IgG was used as secondary antibody. The HRP conjugated donkey anti-goat IgG was used to detect. (D) We calculated OD value into percentage.

[2] = test system: ENO1 proteins on Candida spp. (C. glabrate); assay type: binding
From the text: (§1) (A) The total cell lysates of 5 Candida spp. were visualized on SDS-PAGE (left). After transferred onto the NC membranes, they were probed with purified anti-CaENO1 from 7th immunized chicken (1:3,000) (middle), or with CaS1 scFv (right) as described in material and methods. Lanes 1-6 in (A) contained the total cell lysates of C. albicans, C. krusei, C. tropicalis, C. parapsilosis and C. glabrate and purified recombinant CaENO1, respectively. […] (C) Total cell lysate from FLU^R and FLU^s and C. tropicalis (lanes 1-5 represent CT6-29, CT11-52, CT6-50, CT12-54, BCRC20520, respectively) by SDS-PAGE (left) and probed with CaS1 scFv by Western blot (right). (D) The purified ENO1 proteins of C. albicans, S. pneumonia, S. aureus, mouse and human were visualized on SDS-PAGE (left). After transferred onto the NC membranes, they were probed with purified CaS1 scFv (right) as described. Lane M contained protein markers.
(§2) To detect the presence of ENO1 proteins, the purified recombinant ENO1 protein or cell lysates of five Candida spp were subjected to SDS-PAGE analysis, transferred onto nitrocellulose membranes (Amersham Biosciences, UK) and then blocked with 5% skim milk in TBST for 1 hr. The anti-CaENO1 IgY from chicken after 7th immunization (1:3,000) or purified CaS1 scFv antibody (1 μg/ml) were added and incubated for 1 hr at room temperature. After vigorous washings, horseradish peroxidase (HRP)-conjugated polyclonal donkey anti-chicken IgY antibodies (1:3,000) (Bethyl Laboratories, Montgomery, Tex., USA) were added and incubated for an additional 1 hr for detecting the bound IgY antibodies. However, goat anti-chicken light chain antibodies (1:3,000) (Bethyl Laboratories, Montgomery, Tex., USA), followed by HRP-conjugated donkey anti-goat IgG antibodies (Jackson ImmunoResearch, USA) were used for detecting the bound scFv antibodies. After washings as above, the membranes were developed with diaminobenzidine (DAB) or ECL substrate. The ImageQuant LAS4500 was used for ECL intensity detection.
(§3) This CaS1 scFv was evaluated for its binding activity to different species of Candida. Five common strains of Candida were obtained, total lysate of five species Candida were analyzed on SDS-PAGE (FIG. 6A left) and subsequent Western blot.

[3] = test system: ENO1 proteins on Candida spp. (C. tropicalis); assay type: binding
From the text: as §1, §2, §3

CaENO1 [4] = molecular target: T1, CaENO1; assay: Western blot on purified ENO1 protein of C. albicans; assay type: binding
From the text: as §1
Briefly, C. albicans alpha-enolase genes were constructed in pQE30 plasmids to form pQE30-CaENO1 vector, and then the resulting vectors were transformed with E. coli BL21 cells. The bacterial culture was grown in 10 ml LB medium containing ampicillin ([…]) at 37° C. overnight, diluted 10-fold in the same LB medium and further grown until the OD600 reached between 0.6 and 1.0. […]

C. albicans = C. albicans hyphal formation; assay type: cell-based; details: CaS1 scFv pre-incubated with 10^3 cfu, 5 days at 37° C.
Experimental: (A) C. albicans were cultured in YPD medium overnight at 37° C. 10^8 cfu/ml of C. albicans was mixed with equal volume of 0.5 mg/ml anti-CaENO1 IgY, 0.5 mg/ml CaS1 scFv or 1×PBS, respectively, at room temperature for 1 hr. 1 ul of each mixture in 10× dilutions was spotted on YPD agar plate and incubated at 37° C. overnight. (B) 10^3 cfu of C. albicans was mixed with PBS (control), 10 or 100 µg/ml CaS1 scFv at room temperature for 1 hr. 1 ul of each mixture was spotted on YPD agar plate and incubated at 37° C. for 5 days. The hyphal formation was observed under the microscope.
To determine the effect of scFv antibodies on the cell growth and hyphal formation, anti-CaENO1 IgY (0.5 mg/ml) or CaS1 scFv (0.5 mg/ml) or PBS were pre-incubated with C. albicans (1×10^6 cfu) for 1 hr at 37° C. After incubation, 1 ul of each mixture in 10-fold dilutions was spotted on YPD agar plate and incubated at 37° C. overnight. 10^3 cfu of C. albicans was mixed with 0 (1×PBS control), 10 or 100 µg/ml CaS1 scFv at room temperature for 1 hr. Thereafter, 1 ul of each mixture was spotted on YPD agar plate and incubated at 37° C. for 5 days. […].
So we further investigated whether CaS1 scFv affects the hyphal formation. We pre-incubated CaS1 scFv with C. albicans and the colony morphology was examined. […]

[5] = molecular target: T2, CaENO1 binding to plasminogen (Candida albicans, UniProt P30575); assay: Fibrin matrix-gel degradation with CaENO1 on Ni sepharose; assay type: biochemical, C. albicans; details: antibody 100 ug; for Binding of CaENO1 to plasminogen: CaENO1 on Ni sepharose
T2 construct: using full-length CaENO1 (1323 bp) as template; made in house; host or cells: E. coli BL21
T2 sequence (P30575 whole entry): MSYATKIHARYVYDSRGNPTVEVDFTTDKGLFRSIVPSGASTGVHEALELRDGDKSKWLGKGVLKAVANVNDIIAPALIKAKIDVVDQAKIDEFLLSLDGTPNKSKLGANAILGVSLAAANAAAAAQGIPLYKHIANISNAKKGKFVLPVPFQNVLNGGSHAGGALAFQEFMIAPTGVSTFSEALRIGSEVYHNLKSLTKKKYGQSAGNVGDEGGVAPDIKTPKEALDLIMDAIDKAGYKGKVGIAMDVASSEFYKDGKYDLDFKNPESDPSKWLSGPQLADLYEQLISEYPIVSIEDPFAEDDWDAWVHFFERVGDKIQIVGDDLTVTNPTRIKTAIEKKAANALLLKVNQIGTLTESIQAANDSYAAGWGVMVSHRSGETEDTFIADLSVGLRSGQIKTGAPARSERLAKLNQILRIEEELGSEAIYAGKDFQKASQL
Experimental: Each experimental group of CaENO1 with CaS1 scFv were dropped onto gel and incubated at room temperature for 2 days to observe gel degrade result. (1) plasminogen (1 ug/ul) only. (2) CaENO1 on Ni Sepharose™ (10 ug). (3) CaENO1 on Sepharose™ (10 ug) with plasminogen (20 ug).
Each experimental group of CaENO1 with CaS1 scFv were dropped onto gel and incubated at room temperature for 2 days to observe gel degrade result an the results are shown in FIG. 15.

T1 sequence (P30575 whole entry): as above

B1: CaS1 scFv: anti-CaENO1 scFv monoclonal antibody from chicken phage library; light chain SEQ ID NO:11, heavy chain SEQ ID NO:12 (antibody, V domains shown)
VH: TVTLDESGGGLQTPRGALSLVCKASGFTFIDYGMQWVRQAPGKGLEWVAGIGSSGSSTNYGAAVKGRATISRDDGQSTVRLQLNNLRAEDTGTYYCAKSAGGYCVNGAGCNGGSIDAWGHGTEVIVSS
VL: ALTQPSSVSANLGGTVKITCSGGSGSYGWYQQKSPGSAPVTVIYSNNQRPSNIPSRFSGSPSGSTGTLTITGVQADDEAVYFCGSRDSSYVGVFGAGTTLTVL
modifications: scFv linker; amino acid sequence comprised in a heavy chain of an anti-CaENO1 scFv monoclonal antibody (CaS1); amino acid sequence comprised in a light chain of an anti-CaENO1 scFv monoclonal antibody (CaS1)
- KD by competitive ELISA (CaENO1 [1]): 4.45 µg/mL
- Kd (CaENO1 [1]; read-out: KD by competitive ELISA): 89 nM
- Binding to ENO1 in total cell lysate of C. glabrate (Western blot) [2]: cannot react
- Binding to fluconazole resistance and susceptible C. glabrate from clinic (Western blot) [2]: not
- Binding to ENO1 in total cell lysate of C. tropicalis (Western blot) [3]: specifically recognized; also recorded: reacted
- Binding to fluconazole resistance and susceptible C. tropicalis from clinic (Western blot) [3]: binds; also recorded: can bind
- Binding to purified CaENO1 (Western blot) (CaENO1 [4]): bind and recognizes
- Hyphal formation (C. albicans): very little or none were observed
- Fibrinolytic activity of CaENO1 on Sepharose with plasminogen ([5]; CaENO1 10 ug, plasminogen 20 ug, 2 days): no fibrinolytic activity
- Binding of CaENO1 to plasminogen [5]: significantly reduced
- Binding of CaENO1 to plasminogen ([5]; listed as CaS1): inhibits
